Test results published in article PMC3981807.

Substrate: O=P(O)(O)O[C@H]1[C@H](OP(=O)(O)O)[C@@H](OP(=O)(O)O)[C@H](OP(=O)(O)O)[C@@H](OP(=O)(O)O)[C@H]1OP(=O)(O)O
Test: purified protein
Settings: 50 mM sodium acetate pH 4.0, 50 °C, ionic strength 50 mM (NaCl), 3 min, sodium phytate 0.006-0.800 mM

B1: Bd1204 (Bdellovibrio bacteriovorus HD100) (protein)
chain: QKSVSLTPDKPVSTKIPFFMTRPQPTTPVELVFDKDHAAPKPMNYRKSDSLRMSGSATFSPKALKEVAKPVKKNKASLYVFDLRQESHGLINDIPVTWYADRDWANADLNHEEAVRRERRLLGDLRVGDKIGTTAIQSIETEESMIRTGGHQYVRLTVTDHVRPVDSEVDRFIESVRALPENAWVHFHCRAGKGRTTTFMVLYDMLKNAKTDSFEEIIKRNTELSNDYDVLTVPADEKDWKYPYQKERAAFVTEFYNYAKAHPNGEGMLWGEWVLR
B1 was tested, and the Km was 574 µM and the kcat was 124 s⁻¹.
